{"source": "patent US20050287542A1", "about": "(YALE UNIVERSITY, published 2005)", "biological_target": "T1, GST-KIXY650A (Y650A variant of CBP KIX) (UniProt P45481 586-665, limits assumed)", "T1 construct": "domain: KIX; not shown: GST tag", "T1 sequence (P45481 586-665 Y650A limits assumed)": "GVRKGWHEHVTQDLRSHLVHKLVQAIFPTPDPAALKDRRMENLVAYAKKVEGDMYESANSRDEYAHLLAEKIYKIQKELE", "experiment": "fluorescence polarization, 25 nM fluorescein-labelled peptide, GST-KIXY650A titrated", "note": "Ends that are not written are not given here."}
{"binder": "GISWPTFEGDDAPVRRLSFFYILLDLYLDAPGVC(acetamidofluorescein)-NH2 (designed binder, also called PPKID6 (unphosphorylated))", "note": "[PPKID6^U]", "values": [{"measurement": "EC50 (read off the curve)", "value": "~700", "unit": "nM"}]}
